# Results reported in publication doi:10.1101/466946 (bioRxiv, 2018).
# B1: recombinant PHD2 (enzyme, human, UniProt Q9GZT9 1-426, looked up)
# chain: MANDSGGPGGPSPSERDRQYCELCGKMENLLRCSRCRSSFYCCKEHQRQDWKKHKLVCQGSEGALGHGVGPHQHSGPAPPAAVPPPRAGAREPRKAAARRDNASGDAAKGKVKAKPPADPAAAASPCRAAAGGQGSAVAAEAEPGKEEPPARSSLFQEKANLYPPSNTPGDALSPGGGLRPNGQTKPLPALKLALEYIVPCMNKHGICVVDDFLGKETGQQIGDEVRALHDTGKFTDGQLVSQKSDSSKDIRGDKITWIEGKEPGCETIGLLMSSMDDLIRHCNGKLGSYKINGRTKAMVACYPGNGTGYVRHVDNPNGDGRCVTCIYYLNKDWDAKVSGGILRIFPEGKAQFADIEPKFDRLLFFWSDRRNPHEVQPAYATRYAITVWYFDADERARAKVKYLTGEKGVRVELNKPSDSVGKDVF
# Target: recombinant full-length CIN85 (human, UniProt Q96B97 1-665)
# Assay: SPR
# recombinant full-length CIN85, sequence (Q96B97 whole entry): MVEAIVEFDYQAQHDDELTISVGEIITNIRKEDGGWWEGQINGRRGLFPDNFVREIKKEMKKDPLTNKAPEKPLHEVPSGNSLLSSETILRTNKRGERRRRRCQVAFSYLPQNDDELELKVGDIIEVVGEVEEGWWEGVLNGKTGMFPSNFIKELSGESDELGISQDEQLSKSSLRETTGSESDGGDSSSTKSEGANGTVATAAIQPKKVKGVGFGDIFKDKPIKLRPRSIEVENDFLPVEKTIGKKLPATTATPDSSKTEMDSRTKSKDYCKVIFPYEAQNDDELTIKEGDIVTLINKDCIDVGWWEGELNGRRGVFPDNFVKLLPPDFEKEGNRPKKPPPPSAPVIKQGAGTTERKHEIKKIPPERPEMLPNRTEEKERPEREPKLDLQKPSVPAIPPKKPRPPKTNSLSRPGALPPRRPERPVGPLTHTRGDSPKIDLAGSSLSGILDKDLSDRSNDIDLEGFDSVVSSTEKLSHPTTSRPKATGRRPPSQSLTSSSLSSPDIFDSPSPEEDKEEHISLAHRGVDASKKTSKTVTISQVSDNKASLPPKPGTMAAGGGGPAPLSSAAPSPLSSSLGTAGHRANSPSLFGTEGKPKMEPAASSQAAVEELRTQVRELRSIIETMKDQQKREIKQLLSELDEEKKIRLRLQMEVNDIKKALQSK
binder,measurement,value
B1,Kd,28.5 nM
